# Test results: US20250084142A1 (INTARCIA THERAPEUTICS, published 2025)
# Starred links: 1 amine or outer side, 2 acyl side, 3 side chain; linkers in the order of their positions; H or OH if unused. Non-standard residues stand in square brackets, D forms with d. Groups on a side chain read outwards from the residue. No end group written: not given here. *: point of attachment. C20 diacid = O=C(O)CCCCCCCCCCCCCCCCCCC(=O)*; Phe(4-F) = N[C@@H](Cc1ccc(F)cc1)C(=O)O; Phe(4-Me) = Cc1ccc(C[C@H](N)C(=O)O)cc1; γGlu = O=C(O)[C@H](CCC(=O)[*:2])N[*:1]; hPhe = N[C@@H](CCc1ccccc1)C(=O)O
# T1: NPY5R
# T1 sequence (Q15761 1-445, species assumed, looked up): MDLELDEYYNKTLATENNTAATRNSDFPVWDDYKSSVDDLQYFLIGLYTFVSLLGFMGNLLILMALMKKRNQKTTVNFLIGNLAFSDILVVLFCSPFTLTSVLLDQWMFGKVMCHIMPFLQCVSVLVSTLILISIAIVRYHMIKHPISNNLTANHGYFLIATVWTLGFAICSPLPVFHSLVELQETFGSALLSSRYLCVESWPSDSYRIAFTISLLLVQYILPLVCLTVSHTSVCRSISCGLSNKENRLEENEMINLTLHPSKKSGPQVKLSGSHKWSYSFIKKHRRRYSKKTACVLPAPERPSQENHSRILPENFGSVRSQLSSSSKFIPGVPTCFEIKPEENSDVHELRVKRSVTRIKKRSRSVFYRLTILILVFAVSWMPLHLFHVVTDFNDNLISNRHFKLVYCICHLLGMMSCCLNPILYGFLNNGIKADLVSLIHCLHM
# T2: NPY2R
# T2 sequence (P49146 1-381, species assumed, looked up): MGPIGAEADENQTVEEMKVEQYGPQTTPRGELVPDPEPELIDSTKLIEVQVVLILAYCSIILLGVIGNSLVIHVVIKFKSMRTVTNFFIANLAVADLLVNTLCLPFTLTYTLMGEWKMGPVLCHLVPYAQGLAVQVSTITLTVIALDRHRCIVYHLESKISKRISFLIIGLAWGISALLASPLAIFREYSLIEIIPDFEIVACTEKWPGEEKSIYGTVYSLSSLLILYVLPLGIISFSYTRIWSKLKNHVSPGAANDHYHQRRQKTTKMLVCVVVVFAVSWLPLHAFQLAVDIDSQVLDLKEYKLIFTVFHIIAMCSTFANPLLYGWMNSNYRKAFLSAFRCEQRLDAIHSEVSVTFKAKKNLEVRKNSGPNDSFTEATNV
# B1: Compound A53 (peptide)
# peptide: PKPEAPGKDASPEEWNRYYADLK([γGlu-γGlu-C20 diacid])HYLNWLTRQRF-NH2
# modifications: N-terminus assumed
# SMILES: CC(C)C[C@H](NC(=O)[C@H](CC(=O)O)NC(=O)[C@H](C)NC(=O)[C@H](Cc1ccc(O)cc1)NC(=O)[C@H](Cc1ccc(O)cc1)NC(=O)[C@H](CCCNC(=N)N)NC(=O)[C@H](CC(N)=O)NC(=O)[C@H](Cc1c[nH]c2ccccc12)NC(=O)[C@H](CCC(=O)O)NC(=O)[C@H](CCC(=O)O)NC(=O)[C@@H]1CCCN1C(=O)[C@H](CO)NC(=O)[C@H](C)NC(=O)[C@H](CC(=O)O)NC(=O)[C@H](CCCCN)NC(=O)CNC(=O)[C@@H]1CCCN1C(=O)[C@H](C)NC(=O)[C@H](CCC(=O)O)NC(=O)[C@@H]1CCCN1C(=O)[C@H](CCCCN)NC(=O)[C@@H]1CCCN1)C(=O)N[C@@H](CCCCNC(=O)CC[C@H](NC(=O)CC[C@H](NC(=O)CCCCCCCCCCCCCCCCCCC(=O)O)C(=O)O)C(=O)O)C(=O)N[C@@H](Cc1c[nH]cn1)C(=O)N[C@@H](Cc1ccc(O)cc1)C(=O)N[C@@H](CC(C)C)C(=O)N[C@@H](CC(N)=O)C(=O)N[C@@H](Cc1c[nH]c2ccccc12)C(=O)N[C@@H](CC(C)C)C(=O)N[C@H](C(=O)N[C@@H](CCCNC(=N)N)C(=O)N[C@@H](CCC(N)=O)C(=O)N[C@@H](CCCNC(=N)N)C(=O)N[C@@H](Cc1ccccc1)C(N)=O)[C@@H](C)O
# B2: Compound A51 (peptide)
# peptide: PKPEAPGKDASPEEWNRYYADLRHYLK([γGlu-γGlu-C20 diacid])WLTRQRF-NH2
# modifications: N-terminus assumed
# SMILES: CC(C)C[C@H](NC(=O)[C@H](CC(=O)O)NC(=O)[C@H](C)NC(=O)[C@H](Cc1ccc(O)cc1)NC(=O)[C@H](Cc1ccc(O)cc1)NC(=O)[C@H](CCCNC(=N)N)NC(=O)[C@H](CC(N)=O)NC(=O)[C@H](Cc1c[nH]c2ccccc12)NC(=O)[C@H](CCC(=O)O)NC(=O)[C@H](CCC(=O)O)NC(=O)[C@@H]1CCCN1C(=O)[C@H](CO)NC(=O)[C@H](C)NC(=O)[C@H](CC(=O)O)NC(=O)[C@H](CCCCN)NC(=O)CNC(=O)[C@@H]1CCCN1C(=O)[C@H](C)NC(=O)[C@H](CCC(=O)O)NC(=O)[C@@H]1CCCN1C(=O)[C@H](CCCCN)NC(=O)[C@@H]1CCCN1)C(=O)N[C@@H](CCCNC(=N)N)C(=O)N[C@@H](Cc1c[nH]cn1)C(=O)N[C@@H](Cc1ccc(O)cc1)C(=O)N[C@@H](CC(C)C)C(=O)N[C@@H](CCCCNC(=O)CC[C@H](NC(=O)CC[C@H](NC(=O)CCCCCCCCCCCCCCCCCCC(=O)O)C(=O)O)C(=O)O)C(=O)N[C@@H](Cc1c[nH]c2ccccc12)C(=O)N[C@@H](CC(C)C)C(=O)N[C@H](C(=O)N[C@@H](CCCNC(=N)N)C(=O)N[C@@H](CCC(N)=O)C(=O)N[C@@H](CCCNC(=N)N)C(=O)N[C@@H](Cc1ccccc1)C(N)=O)[C@@H](C)O
# B3: Compound A52 (peptide)
# peptide: PKPEAPGKDASPEEWNRYYADLRHK([γGlu-γGlu-C20 diacid])LNWLTRQRF-NH2
# modifications: N-terminus assumed
# SMILES: CC(C)C[C@H](NC(=O)[C@H](CC(=O)O)NC(=O)[C@H](C)NC(=O)[C@H](Cc1ccc(O)cc1)NC(=O)[C@H](Cc1ccc(O)cc1)NC(=O)[C@H](CCCNC(=N)N)NC(=O)[C@H](CC(N)=O)NC(=O)[C@H](Cc1c[nH]c2ccccc12)NC(=O)[C@H](CCC(=O)O)NC(=O)[C@H](CCC(=O)O)NC(=O)[C@@H]1CCCN1C(=O)[C@H](CO)NC(=O)[C@H](C)NC(=O)[C@H](CC(=O)O)NC(=O)[C@H](CCCCN)NC(=O)CNC(=O)[C@@H]1CCCN1C(=O)[C@H](C)NC(=O)[C@H](CCC(=O)O)NC(=O)[C@@H]1CCCN1C(=O)[C@H](CCCCN)NC(=O)[C@@H]1CCCN1)C(=O)N[C@@H](CCCNC(=N)N)C(=O)N[C@@H](Cc1c[nH]cn1)C(=O)N[C@@H](CCCCNC(=O)CC[C@H](NC(=O)CC[C@H](NC(=O)CCCCCCCCCCCCCCCCCCC(=O)O)C(=O)O)C(=O)O)C(=O)N[C@@H](CC(C)C)C(=O)N[C@@H](CC(N)=O)C(=O)N[C@@H](Cc1c[nH]c2ccccc12)C(=O)N[C@@H](CC(C)C)C(=O)N[C@H](C(=O)N[C@@H](CCCNC(=N)N)C(=O)N[C@@H](CCC(N)=O)C(=O)N[C@@H](CCCNC(=N)N)C(=O)N[C@@H](Cc1ccccc1)C(N)=O)[C@@H](C)O
# B4: Compound A55 (peptide)
# peptide: PKPEAPGKDASPEEWK([γGlu-γGlu-C20 diacid])RYYADLRHYLNWLTRQRF-NH2
# modifications: N-terminus assumed
# SMILES: CC(C)C[C@H](NC(=O)[C@H](CC(=O)O)NC(=O)[C@H](C)NC(=O)[C@H](Cc1ccc(O)cc1)NC(=O)[C@H](Cc1ccc(O)cc1)NC(=O)[C@H](CCCNC(=N)N)NC(=O)[C@H](CCCCNC(=O)CC[C@H](NC(=O)CC[C@H](NC(=O)CCCCCCCCCCCCCCCCCCC(=O)O)C(=O)O)C(=O)O)NC(=O)[C@H](Cc1c[nH]c2ccccc12)NC(=O)[C@H](CCC(=O)O)NC(=O)[C@H](CCC(=O)O)NC(=O)[C@@H]1CCCN1C(=O)[C@H](CO)NC(=O)[C@H](C)NC(=O)[C@H](CC(=O)O)NC(=O)[C@H](CCCCN)NC(=O)CNC(=O)[C@@H]1CCCN1C(=O)[C@H](C)NC(=O)[C@H](CCC(=O)O)NC(=O)[C@@H]1CCCN1C(=O)[C@H](CCCCN)NC(=O)[C@@H]1CCCN1)C(=O)N[C@@H](CCCNC(=N)N)C(=O)N[C@@H](Cc1c[nH]cn1)C(=O)N[C@@H](Cc1ccc(O)cc1)C(=O)N[C@@H](CC(C)C)C(=O)N[C@@H](CC(N)=O)C(=O)N[C@@H](Cc1c[nH]c2ccccc12)C(=O)N[C@@H](CC(C)C)C(=O)N[C@H](C(=O)N[C@@H](CCCNC(=N)N)C(=O)N[C@@H](CCC(N)=O)C(=O)N[C@@H](CCCNC(=N)N)C(=O)N[C@@H](Cc1ccccc1)C(N)=O)[C@@H](C)O
# B5: Compound A54 (peptide)
# peptide: PKPEAPGKDASPEEWNRYYK([γGlu-γGlu-C20 diacid])DLRHYLNWLTRQRF-NH2
# modifications: N-terminus assumed
# SMILES: CC(C)C[C@H](NC(=O)[C@H](CC(=O)O)NC(=O)[C@H](CCCCNC(=O)CC[C@H](NC(=O)CC[C@H](NC(=O)CCCCCCCCCCCCCCCCCCC(=O)O)C(=O)O)C(=O)O)NC(=O)[C@H](Cc1ccc(O)cc1)NC(=O)[C@H](Cc1ccc(O)cc1)NC(=O)[C@H](CCCNC(=N)N)NC(=O)[C@H](CC(N)=O)NC(=O)[C@H](Cc1c[nH]c2ccccc12)NC(=O)[C@H](CCC(=O)O)NC(=O)[C@H](CCC(=O)O)NC(=O)[C@@H]1CCCN1C(=O)[C@H](CO)NC(=O)[C@H](C)NC(=O)[C@H](CC(=O)O)NC(=O)[C@H](CCCCN)NC(=O)CNC(=O)[C@@H]1CCCN1C(=O)[C@H](C)NC(=O)[C@H](CCC(=O)O)NC(=O)[C@@H]1CCCN1C(=O)[C@H](CCCCN)NC(=O)[C@@H]1CCCN1)C(=O)N[C@@H](CCCNC(=N)N)C(=O)N[C@@H](Cc1c[nH]cn1)C(=O)N[C@@H](Cc1ccc(O)cc1)C(=O)N[C@@H](CC(C)C)C(=O)N[C@@H](CC(N)=O)C(=O)N[C@@H](Cc1c[nH]c2ccccc12)C(=O)N[C@@H](CC(C)C)C(=O)N[C@H](C(=O)N[C@@H](CCCNC(=N)N)C(=O)N[C@@H](CCC(N)=O)C(=O)N[C@@H](CCCNC(=N)N)C(=O)N[C@@H](Cc1ccccc1)C(N)=O)[C@@H](C)O
# Target: T1, NPY5R
# Test: cell-based or functional assay
row,Binder,NPY5R pEC50
1,PKPEAPGK([γGlu-γGlu-C20 diacid])DASPEEWNRYYADLRHYLNWLTRQR[Phe(4-F)]-NH2 [Compound A60],"8.6 -Log(EC50, M)"
2,B1,"7.3 -Log(EC50, M)"
3,PKPEAPGK([γGlu-γGlu-C20 diacid])DASPEEWNRYYADLRHYLNWLTRQR[hPhe]-NH2 [Compound A61],"8.3 -Log(EC50, M)"
4,PKPEAPGK([γGlu-γGlu-C20 diacid])DASPEEWNRYYADLRHYLNWLTRQR[Phe(4-Me)]-NH2 [Compound A58],"8.8 -Log(EC50, M)"
5,B2,"6 -Log(EC50, M)"
6,B3,"8 -Log(EC50, M)"
7,B4,"7.7 -Log(EC50, M)"
8,B5,"8 -Log(EC50, M)"

# Target: T2, NPY2R
# Test: cell-based or functional assay
row,Binder,NPY2R pEC50
1,PKPEAPGK([γGlu-γGlu-C20 diacid])DASPEEWNRYYADLRHYLNWLTRQR[Phe(4-F)]-NH2 [Compound A60],"10.3 -Log(EC50, M)"
2,B1,"8.7 -Log(EC50, M)"
3,PKPEAPGK([γGlu-γGlu-C20 diacid])DASPEEWNRYYADLRHYLNWLTRQR[hPhe]-NH2 [Compound A61],"10 -Log(EC50, M)"
4,PKPEAPGK([γGlu-γGlu-C20 diacid])DASPEEWNRYYADLRHYLNWLTRQR[Phe(4-Me)]-NH2 [Compound A58],"10.3 -Log(EC50, M)"
5,B2,"6 -Log(EC50, M)"
6,B3,"8.4 -Log(EC50, M)"
7,B4,"8.9 -Log(EC50, M)"
8,B5,"7.7 -Log(EC50, M)"
